Data: patent publication US10117886B2, “Hyaluronidase and a low density second PEG layer on the surface of therapeutic-encapsulated nanoparticles to enhance nanoparticle diffusion and circulation” (priority 2014, dated 2018)
Structures can show the parent of a compound that is named as a salt. Where two headings read alike, the source gives them in different places.

B1: free PH20: recombinant human hyaluronidase PH20 obtained from Halozyme, Inc, unconjugated (protein, UniProt P38567 36-490, looked up)
Hyaluronidase PH-20: LNFRAPPVIPNVPFLWAWNAPSEFCLGKFDEPLDMSLFSFIGSPRINATGQGVTIFYVDRLGYYPYIDSITGVTVNGGIPQKISLQDHLDKAKKDITFYMPVDNLGMAVIDWEEWRPTWARNWKPKDVYKNRSIELVQQQNVQLSLTEATEKAKQEFEKAGKDFLVETIKLGKLLRPNHLWGYYLFPDCYNHHYKKPGYNGSCFNVEIKRNDDLSWLWNESTALYPSIYLNTQQSPVAATLYVRNRVREAIRVSKIPDAKSPLPVFAYTRIVFTDQVLKFLSQDELVYTFGETVALGASGIVIWGTLSIMRSMKSCLLLDNYMETILNPYIINVTLAAKMCSQVLCQEQGVCIRKNWNSSDYLHLNPDNFAIQLEKGGKFTVRGKPTLEDLEQFSEKFYCSCYSTLSCKEKADVKDTDAVDVCIADGVCIDAFLKPPMETEEPQIFYNASPSTLS

Assays:
4T1 tumors = assay: Antitumor efficacy in mouse 4T1 syngeneic breast tumor model; format: in vivo; conditions: 2 mg/kg DOX; (MST treated/MST control −1)×100
Method: Efficacy of the nanoparticles produced in Example 2 was evaluated in a mouse 4T1 syngeneic breast tumor model, in which the host BALB/c mouse is immune-competent, and the tumor growth and metastatic spread of 4T1 cells closely mimic human breast cancer. Female BALB/c mice at 6 weeks were ordered and within a one-week stay, 50 μL of 1×10^7 4 T1 cells/mL in PBS was injected at the mammary fat pad on the right flank of the mice. Tumor size was calculated using V=0.5×width^2×length.
The nanoparticles with encapsulated DOX produced in Example 2 were used to treat tumors in a mouse 4T1 syngeneic breast tumor model BALB/c mice. The mice were randomly assigned into 4 groups and injected with saline, free DOX in saline, DOX-PLGA-PEG-NPs and DOX-PLGA-PEG-PH20-NPs (PH20 activity of DOX-PLGA-PEG-PH20-NPs is 500 U/mouse) at 2 mg/kg mice of DOX at 9, 11, 14, 17, 20 days after inoculation of 4T1 cells in the mice. The tumors reached a size of 150-250 mm^3 at day 9 before treatment. Tumor sizes were monitored throughout the whole study (FIG. 14A). The survival rate was studied based on the number of mice in each group that survived over time. MST (day) was defined as the time at which half of the mice had died.
The percentage ILS (%) was calculated using the following equation: ILS (%)=[(MST of treated group/MST of control group) −1]*100. […]

[1] = free PH20, cited from earlier work
[2] = tested on: pericellular HA layer around PC3 cells; assay: Degradation of pericellular HA layer around PC3 cells by free PH20; format: cell-based, human; conditions: 1000 U of free PH20 for 1 h
[3] = tested on: pericellular HA matrix of 4T1 cells; assay: Degradation of pericellular HA of 4T1 cells (HA staining, RBC exclusion assay); format: cell-based, mouse
Method: The nanoparticles produced in Example 2 were tested on tumor cell line 4T1, which synthesizes HA and forms a layer of HA matrix around the cells. 4T1 cells were maintained in a RPMI-1640 medium (ATCC) containing 10% fetal bovine serum in 5% CO2 in an incubator at 37° C. 4T1 cells were cultured on round glass coverslips in a 12-well plate for one day to reach 70% confluency before treatment with the nanoparticles. DiD-labeled PLGA-PEG-NPs (no PH20 activity) and DiD-labeled PLGA-PEG-PH20-NPs (conjugated 10 U/mL PH20 activity) were used for this test. The amount of nanoparticles in all samples was equalized via fluorescence intensity. […]
The 4T1 cells were then washed and fixed and observed under a confocal microscope (Olympus IX81, 60×, C.A.=80 μm) with 405 nm and 635 nm lasers for DAPI and DiD respectively. […] The total fluorescence intensity of DiD was quantified via Image J and averaged by the number of cells.
RBCs were collected fresh from mice and washed three times with PBS before being resuspended in 2% formaldehyde in PBS for fixation of the RBCs overnight at room temperature. […] The areas of exclusion (no RBCs) were quantified through ImageJ. […]

| Molecule | percentage increased life span ILS (%) (4T1 tumors) | circulation half-life [1] | circulation half-life ([1]; listed as PH20) | degradation of pericellular HA layer [2] | amount of HA around 4T1 cells, RBC exclusion ([3]; 1000 U/mL of PH20, 2 h, 37° C.) | degradation of pericellular HA layer around 4T1 cells ([3]; 3000 U of free PH20 for 1 h) |
| --- | --- | --- | --- | --- | --- | --- |
| COc1cccc2c1C(=O)c1c(O)c3c(c(O)c1C2=O)C[C@@](O)(C(=O)CO)C[C@@H]3O[C@H]1C[C@H](N)[C@H](O)[C@H](C)O1 [Free DOX, Doxorubicin Hydrochloride salt] | 10% |  |  |  |  |  |
| B1 |  | less than 3 min | 3 min | sufficient to degrade the pericellular HA layer around PC3 cells | reduced to a low level that could no longer block RBCs | sufficient to degrade the pericellular HA layer around 4T1 cells |
